In US20240270846A1 (published 2024):

What follows are binders tested against T1, CD3 epsilon homodimer protein (UniProt P07766 23-126) (assay: SPR (Biacore T200), CD3e homodimer on CM4 chip, antibody as analyte; KD ratio vs unaltered GLS3000;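 further: CD3 epsilon homodimer amine-coupled to the sensor surface, antibodies injected as analyte at 25 °C with HBS-EP+ running buffer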).
T1 construct: also called CD3 (CD3 epsilon)
T1 sequence (P07766 23-126): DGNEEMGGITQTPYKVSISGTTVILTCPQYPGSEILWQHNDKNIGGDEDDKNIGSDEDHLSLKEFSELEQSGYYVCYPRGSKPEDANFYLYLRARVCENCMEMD

KD ratio to GLS3000 [ratio]	Binder
4.6	CE115HA000/GLS3000 H34Q one-arm antibody (antibody, human IgG1, kappa, L234A L235A, N297A, name in Kabat numbering, one-arm IgG1) heavy: QVQLVESGGGVVQPGRSLRLSCAASGFTFSNAWMHWVRQAPGKGLEWVAQIKAKSNNYATYYAESVKGRFTISRDDSKNSLYLQMNSLKTEDTAVYYCRYVHYGAYYGVDAWGQGTTVTVSSASTKGPSVFPLAPSSKSTSGGTAALGCLVKDYFPEPVTVSWNSGALTSGVHTFPAVLQSSGLYSLSSVVTVPSSSLGTQTYICNVNHKPSNTKVDKKVEPKSCDKTHTCPPCPAPEAAGGPSVFLFPPKPKDTLMISRTPEVTCVVVDVSHEDPEVKFNWYVDGVEVHNAKTKPREEQYASTYRVVSVLTVLHQDWLNGKEYKCKVSNKALPAPIEKTISKAKGQPREPQVYTLPPSRCELTKNQVSLSCAVKGFYPSDIAVEWESNGQPENNYKTTPPVLDSDGSFFLVSKLTVDKSRWQQGNVFSCSVMHEALHNHYTQKSLSLSPDYKDDDDK EPKSSDKTHTCPPCPAPELLGGPSVFLFPPKPKDTLMISRTPEVTCVVVDVSHEDPEVKFNWYVDGVEVHNAKTKPREEQYNSTYRVVSVLTVLHQDWLNGKEYKCKVSNKALPAPIEKTISKAKGQPREPQVCTLPPSRDELTKNQVSLWCLVKGFYPSDIAVEWESNGQPENNYKTTPPVLDSDGSFFLYSKLTVDKSRWQQGNVFSCSVMHEALHNRYTQKSLSLSP light: DIVMTQSPLSLPVTPGEPASISCRSSQSLVHSNRNTYLQWYQQKPGQAPRLLIYKVSNRFSGVPDRFSGSGSGTDFTLKISRVEAEDVGVYYCGQGTQVPYTFGQGTKLEIKRTVAAPSVFIFPPSDEQLKSGTASVVCLLNNFYPREAKVQWKVDNALQSGNSQESVTEQDSKDSTYSLSSTLTLSKADYEKHKVYACEVTHQGLSSPVTKSFNRGEC
1.24	CE115HA000/GLS3000 H34S one-arm antibody (antibody, human IgG1, kappa, L234A L235A, N297A, name in Kabat numbering, one-arm IgG1) heavy: QVQLVESGGGVVQPGRSLRLSCAASGFTFSNAWMHWVRQAPGKGLEWVAQIKAKSNNYATYYAESVKGRFTISRDDSKNSLYLQMNSLKTEDTAVYYCRYVHYGAYYGVDAWGQGTTVTVSSASTKGPSVFPLAPSSKSTSGGTAALGCLVKDYFPEPVTVSWNSGALTSGVHTFPAVLQSSGLYSLSSVVTVPSSSLGTQTYICNVNHKPSNTKVDKKVEPKSCDKTHTCPPCPAPEAAGGPSVFLFPPKPKDTLMISRTPEVTCVVVDVSHEDPEVKFNWYVDGVEVHNAKTKPREEQYASTYRVVSVLTVLHQDWLNGKEYKCKVSNKALPAPIEKTISKAKGQPREPQVYTLPPSRCELTKNQVSLSCAVKGFYPSDIAVEWESNGQPENNYKTTPPVLDSDGSFFLVSKLTVDKSRWQQGNVFSCSVMHEALHNHYTQKSLSLSPDYKDDDDK EPKSSDKTHTCPPCPAPELLGGPSVFLFPPKPKDTLMISRTPEVTCVVVDVSHEDPEVKFNWYVDGVEVHNAKTKPREEQYNSTYRVVSVLTVLHQDWLNGKEYKCKVSNKALPAPIEKTISKAKGQPREPQVCTLPPSRDELTKNQVSLWCLVKGFYPSDIAVEWESNGQPENNYKTTPPVLDSDGSFFLYSKLTVDKSRWQQGNVFSCSVMHEALHNRYTQKSLSLSP light: DIVMTQSPLSLPVTPGEPASISCRSSQSLVHSNRNTYLSWYQQKPGQAPRLLIYKVSNRFSGVPDRFSGSGSGTDFTLKISRVEAEDVGVYYCGQGTQVPYTFGQGTKLEIKRTVAAPSVFIFPPSDEQLKSGTASVVCLLNNFYPREAKVQWKVDNALQSGNSQESVTEQDSKDSTYSLSSTLTLSKADYEKHKVYACEVTHQGLSSPVTKSFNRGEC

More lines, now with the values behind:

Binder	KD ratio to GLS3000 [ratio]
CE115HA000/GLS3000 H34M one-arm antibody (antibody, human IgG1, kappa, L234A L235A, N297A, name in Kabat numbering, one-arm IgG1) heavy: QVQLVESGGGVVQPGRSLRLSCAASGFTFSNAWMHWVRQAPGKGLEWVAQIKAKSNNYATYYAESVKGRFTISRDDSKNSLYLQMNSLKTEDTAVYYCRYVHYGAYYGVDAWGQGTTVTVSSASTKGPSVFPLAPSSKSTSGGTAALGCLVKDYFPEPVTVSWNSGALTSGVHTFPAVLQSSGLYSLSSVVTVPSSSLGTQTYICNVNHKPSNTKVDKKVEPKSCDKTHTCPPCPAPEAAGGPSVFLFPPKPKDTLMISRTPEVTCVVVDVSHEDPEVKFNWYVDGVEVHNAKTKPREEQYASTYRVVSVLTVLHQDWLNGKEYKCKVSNKALPAPIEKTISKAKGQPREPQVYTLPPSRCELTKNQVSLSCAVKGFYPSDIAVEWESNGQPENNYKTTPPVLDSDGSFFLVSKLTVDKSRWQQGNVFSCSVMHEALHNHYTQKSLSLSPDYKDDDDK EPKSSDKTHTCPPCPAPELLGGPSVFLFPPKPKDTLMISRTPEVTCVVVDVSHEDPEVKFNWYVDGVEVHNAKTKPREEQYNSTYRVVSVLTVLHQDWLNGKEYKCKVSNKALPAPIEKTISKAKGQPREPQVCTLPPSRDELTKNQVSLWCLVKGFYPSDIAVEWESNGQPENNYKTTPPVLDSDGSFFLYSKLTVDKSRWQQGNVFSCSVMHEALHNRYTQKSLSLSP light: DIVMTQSPLSLPVTPGEPASISCRSSQSLVHSNRNTYLMWYQQKPGQAPRLLIYKVSNRFSGVPDRFSGSGSGTDFTLKISRVEAEDVGVYYCGQGTQVPYTFGQGTKLEIKRTVAAPSVFIFPPSDEQLKSGTASVVCLLNNFYPREAKVQWKVDNALQSGNSQESVTEQDSKDSTYSLSSTLTLSKADYEKHKVYACEVTHQGLSSPVTKSFNRGEC	3.16
CE115HA000/GLS3000 H34P one-arm antibody (antibody, human IgG1, kappa, L234A L235A, N297A, name in Kabat numbering, one-arm IgG1) heavy: QVQLVESGGGVVQPGRSLRLSCAASGFTFSNAWMHWVRQAPGKGLEWVAQIKAKSNNYATYYAESVKGRFTISRDDSKNSLYLQMNSLKTEDTAVYYCRYVHYGAYYGVDAWGQGTTVTVSSASTKGPSVFPLAPSSKSTSGGTAALGCLVKDYFPEPVTVSWNSGALTSGVHTFPAVLQSSGLYSLSSVVTVPSSSLGTQTYICNVNHKPSNTKVDKKVEPKSCDKTHTCPPCPAPEAAGGPSVFLFPPKPKDTLMISRTPEVTCVVVDVSHEDPEVKFNWYVDGVEVHNAKTKPREEQYASTYRVVSVLTVLHQDWLNGKEYKCKVSNKALPAPIEKTISKAKGQPREPQVYTLPPSRCELTKNQVSLSCAVKGFYPSDIAVEWESNGQPENNYKTTPPVLDSDGSFFLVSKLTVDKSRWQQGNVFSCSVMHEALHNHYTQKSLSLSPDYKDDDDK EPKSSDKTHTCPPCPAPELLGGPSVFLFPPKPKDTLMISRTPEVTCVVVDVSHEDPEVKFNWYVDGVEVHNAKTKPREEQYNSTYRVVSVLTVLHQDWLNGKEYKCKVSNKALPAPIEKTISKAKGQPREPQVCTLPPSRDELTKNQVSLWCLVKGFYPSDIAVEWESNGQPENNYKTTPPVLDSDGSFFLYSKLTVDKSRWQQGNVFSCSVMHEALHNRYTQKSLSLSP light: DIVMTQSPLSLPVTPGEPASISCRSSQSLVHSNRNTYLPWYQQKPGQAPRLLIYKVSNRFSGVPDRFSGSGSGTDFTLKISRVEAEDVGVYYCGQGTQVPYTFGQGTKLEIKRTVAAPSVFIFPPSDEQLKSGTASVVCLLNNFYPREAKVQWKVDNALQSGNSQESVTEQDSKDSTYSLSSTLTLSKADYEKHKVYACEVTHQGLSSPVTKSFNRGEC	1.22
CE115HA000/GLS3000 H34N one-arm antibody (antibody, human IgG1, kappa, L234A L235A, N297A, name in Kabat numbering, one-arm IgG1) heavy: QVQLVESGGGVVQPGRSLRLSCAASGFTFSNAWMHWVRQAPGKGLEWVAQIKAKSNNYATYYAESVKGRFTISRDDSKNSLYLQMNSLKTEDTAVYYCRYVHYGAYYGVDAWGQGTTVTVSSASTKGPSVFPLAPSSKSTSGGTAALGCLVKDYFPEPVTVSWNSGALTSGVHTFPAVLQSSGLYSLSSVVTVPSSSLGTQTYICNVNHKPSNTKVDKKVEPKSCDKTHTCPPCPAPEAAGGPSVFLFPPKPKDTLMISRTPEVTCVVVDVSHEDPEVKFNWYVDGVEVHNAKTKPREEQYASTYRVVSVLTVLHQDWLNGKEYKCKVSNKALPAPIEKTISKAKGQPREPQVYTLPPSRCELTKNQVSLSCAVKGFYPSDIAVEWESNGQPENNYKTTPPVLDSDGSFFLVSKLTVDKSRWQQGNVFSCSVMHEALHNHYTQKSLSLSPDYKDDDDK EPKSSDKTHTCPPCPAPELLGGPSVFLFPPKPKDTLMISRTPEVTCVVVDVSHEDPEVKFNWYVDGVEVHNAKTKPREEQYNSTYRVVSVLTVLHQDWLNGKEYKCKVSNKALPAPIEKTISKAKGQPREPQVCTLPPSRDELTKNQVSLWCLVKGFYPSDIAVEWESNGQPENNYKTTPPVLDSDGSFFLYSKLTVDKSRWQQGNVFSCSVMHEALHNRYTQKSLSLSP light: DIVMTQSPLSLPVTPGEPASISCRSSQSLVHSNRNTYLNWYQQKPGQAPRLLIYKVSNRFSGVPDRFSGSGSGTDFTLKISRVEAEDVGVYYCGQGTQVPYTFGQGTKLEIKRTVAAPSVFIFPPSDEQLKSGTASVVCLLNNFYPREAKVQWKVDNALQSGNSQESVTEQDSKDSTYSLSSTLTLSKADYEKHKVYACEVTHQGLSSPVTKSFNRGEC	2.84
